Assay [1] concerns the target T1, CD19 (human, UniProt P15391 20-556).
T1 construct: whole, on cells; also called CD19 on NALM-6 cells
T1 sequence (looked up): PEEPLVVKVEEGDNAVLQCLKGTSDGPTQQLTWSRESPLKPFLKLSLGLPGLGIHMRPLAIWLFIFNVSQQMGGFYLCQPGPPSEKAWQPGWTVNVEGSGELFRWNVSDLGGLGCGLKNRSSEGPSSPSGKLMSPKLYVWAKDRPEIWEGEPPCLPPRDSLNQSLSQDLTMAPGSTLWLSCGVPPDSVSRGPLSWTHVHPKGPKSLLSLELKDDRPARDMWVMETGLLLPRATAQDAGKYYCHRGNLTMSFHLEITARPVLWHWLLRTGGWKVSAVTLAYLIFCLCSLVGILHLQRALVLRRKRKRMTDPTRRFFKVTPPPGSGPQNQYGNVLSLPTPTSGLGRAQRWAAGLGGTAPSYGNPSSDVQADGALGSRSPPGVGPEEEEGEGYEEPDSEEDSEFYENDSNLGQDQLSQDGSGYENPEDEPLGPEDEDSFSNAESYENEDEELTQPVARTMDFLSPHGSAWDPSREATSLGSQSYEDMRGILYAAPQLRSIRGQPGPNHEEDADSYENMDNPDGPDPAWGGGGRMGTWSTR
Description: FACS, purified constructs at 1 and 5 µg/ml on CD19-positive NALM cells. On the procedure: Binding was measured by a FACS-based assay using CD3 enriched PBMCs (A) or CD19-positive NALM-cells (B). A secondary antibody with CD3 positive cells was used as a negative control in (A) and a secondary antibody with CD19 positive cells was used as a negative control in (B). Constructs anti-CD19×anti-CD3 and anti-EpCAM (M79)×anti-CD3 were used as controls. Assay was carried out with concentrations of 1 μg/ml and 5 μg/ml. MFI indicates mean fluorescence intensity.
(§1) In order to analyze the binding efficacy of the deimmunized constructs to CD3 and CD19 a FACS-based assay was performed. Initially, crude supernatants were tested for binding on CD3-enriched PBMCs or CD19-positive NALM-6 cells. Cells were incubated with non-diluted supernatants for 30 minutes at 8° C. Upon two wash steps the cells were labeled with an anti-His antibody (Qiagen) under the same conditions. After additional wash steps binding of the constructs was detected with a FITC-conjugated sheep anti-mouse antibody (Sigma). Cells were analyzed with a FACS Calibur cytometer (B&D). As controls supernatants of anti-CD19×anti-CD3 and GFP-transfected cells were included. […] The positive control, which was a non-deimmunized anti-CD19×anti-CD3 construct reached a MFI of around 60 showing that the deimmunized constructs comprising anti-CD3 (VH5/VL1) (SEQ ID NO.:190), anti-CD3 (VH5/VL2) (SEQ ID NO.:192), anti-CD3 (VH5/VL3) (SEQ ID NO.:194), anti-CD3 (VH7/VL1) (SEQ ID NO.:196), anti-CD3 (VH7/VL2) (SEQ ID NO.:198) and anti-CD3 (VH7/VL3) (SEQ ID NO.:200) bound CD3 with extremely high efficacy.
For orientation: A flow cytometer gives signals particle by particle.

Assay [2] deals with T2, human CD3 (human, UniProt P07766 23-207; P04234 22-171; P09693 23-182).
T2 construct: whole, on cells; also called CD3 antigen; human CD3 complex
Description: FACS, purified construct at 0.5 µg/ml as printed, on CD3 positive cells.

For assay [3], the target named is T1, CD19. As to the kind of experiment: FACS, crude supernatant on CD19-positive NALM-6 cells; negative control MFI ca. 3. On the procedure: as §1
The FACS-based binding assay was also carried out for CD19. In this experiment CD19 and a secondary antibody was as a negative control. In this experiment, all assayed constructs achieved a MFI of at least 80 while the MFI of the negative control was ca. 3.

Assay [4] concerns the target T2, human CD3. As to the kind of experiment: FACS, non-diluted crude supernatant on CD3-enriched PBMCs; anti-His + FITC anti-mouse. On the procedure:
as §1

Assay [5] concerns the target T2, human CD3. Description: FACS, 10 µg/ml on Jurkat cells. On the procedure:
(§2) Binding of the bispecific single chain molecules with anti-CD3 part in N-terminal orientation to EpCAM and CD3 were confirmed by FACS analyses. For that purpose the EpCAM positive human gastric cancer cell line Kato III (ATCC HTB-103) was used.
(§3) Cells were cultured according to the recommendations of the supplier and a number of 200000 cells was incubated with 10 μg/ml of the construct in 50 μl PBS with 2% FCS (fetal calf serum). The binding of the construct was detected with an anti-His antibody (Penta-His Antibody, obtained from Qiagen, Hilden, FRG) at 2 μg/ml in PBS with 2% FCS. […] The samples were measured on a FACSscan (BD biosciences, Heidelberg, FRG).

The target of assay [6] is T3, Epithelial cell adhesion molecule (EpCAM) (human, UniProt P16422 24-314).
T3 construct: whole, on cells; also called 17-1A antigen; KSA
T3 sequence (looked up): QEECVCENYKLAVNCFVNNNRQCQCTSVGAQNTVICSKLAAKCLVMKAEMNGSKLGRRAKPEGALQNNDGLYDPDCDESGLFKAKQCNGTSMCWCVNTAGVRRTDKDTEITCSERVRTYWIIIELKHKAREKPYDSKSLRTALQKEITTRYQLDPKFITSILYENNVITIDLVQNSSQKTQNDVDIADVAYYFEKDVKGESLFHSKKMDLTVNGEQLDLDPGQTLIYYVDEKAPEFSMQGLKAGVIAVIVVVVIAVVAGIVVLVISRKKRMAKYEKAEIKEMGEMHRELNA
Description: FACS, 10 µg/ml on EpCAM positive Kato III cells. On the procedure: as §2, §3

Bounds are passed on as bounds.

B1: anti-CD19×anti-CD3 (VH5/VL1) (SEQ ID NO.:190) (bispecific antibody)
chain: DIQLTQSPASLAVSLGQRATISCKASQSVDYDGDSYLNWYQQIPGQPPKLLIYDASNLVSGIPPRFSGSGSGTDFTLNIHPVEKVDAATYHCQQSTEDPWTFGGGTKLEIKGGGGSGGGGSGGGGSQVQLQQSGAELVRPGSSVKISCKASGYAFSSYWMNWVKQRPGQGLEWIGQIWPGDGDTNYNGKFKGKATLTADESSSTAYMQLSSLASEDSAVYFCARRETTTVGRYYYAMDYWGQGTTVTVSSGGGGSDVQLVQSGAEVKKPGASVKVSCKASGYTFTRYTMHWVRQAPGQGLEWIGYINPSRGYTNYADSVKGRFTITTDKSTSTAYMELSSLRSEDTATYYCARYYDDHYCLDYWGQGTTVTVSSGEGTSTGSGGSGGSGGADDIQMTQSPSSLSASVGDRVTITCRASQSVSYMNWYQQKPGKAPKRWIYDTSKVASGVPARFSGSGSGTDYSLTINSLEAEDAATYYCQQWSSNPLTFGGGTKVEIK
notes: As m4: bispecific single chain, His-tagged; also called pEF anti-CD19×anti-CD3 (VH5/VL1)
With B1, the MFI was approximately 200 MFI in the assay with CD19 [1], not below 40 MFI with human CD3 [2], not below 80 MFI with CD19 [3] and not below 90 MFI in the assay with human CD3 [4]. In addition, in the assay with human CD3 [4], the “fold over the negative control (secondary antibody only, MFI ca. 3.5)” value (“fold over the negative control” for short) was approximately 25 fold.

B2: anti-CD19×anti-CD3 (VH7/VL1) (SEQ ID NO.:196) (bispecific antibody)
chain: DIQLTQSPASLAVSLGQRATISCKASQSVDYDGDSYLNWYQQIPGQPPKLLIYDASNLVSGIPPRFSGSGSGTDFTLNIHPVEKVDAATYHCQQSTEDPWTFGGGTKLEIKGGGGSGGGGSGGGGSQVQLQQSGAELVRPGSSVKISCKASGYAFSSYWMNWVKQRPGQGLEWIGQIWPGDGDTNYNGKFKGKATLTADESSSTAYMQLSSLASEDSAVYFCARRETTTVGRYYYAMDYWGQGTTVTVSSGGGGSDVQLVQSGAEVKKPGASVKVSCKASGYTFTRYTMHWVRQAPGQGLEWIGYINPSRGYTNYNQKFKDRVTITTDKSTSTAYMELSSLRSEDTAVYYCARYYDDHYCLDYWGQGTTVTVSSGEGTSTGSGGSGGSGGADDIQMTQSPSSLSASVGDRVTITCRASQSVSYMNWYQQKPGKAPKRWIYDTSKVASGVPARFSGSGSGTDYSLTINSLEAEDAATYYCQQWSSNPLTFGGGTKVEIK
notes: As m4: bispecific single chain, His-tagged; also called pEF anti-CD19×anti-CD3 (VH7/VL1)
B2: the MFI is approximately 200 MFI with CD19 [1], not below 40 MFI in the assay with human CD3 [2], not below 80 MFI with CD19 [3] and not below 90 MFI in the assay with human CD3 [4]. In the assay with human CD3 [4], the “fold over the negative control” value was approximately 25 fold.

B3: deimmunized anti-CD3 (VH5/VL2)×4-7 (VL-VH) (SEQ ID NO.:35) (bispecific antibody)
chain: DVQLVQSGAEVKKPGASVKVSCKASGYTFTRYTMHWVRQAPGQGLEWIGYINPSRGYTNYADSVKGRFTITTDKSTSTAYMELSSLRSEDTATYYCARYYDDHYCLDYWGQGTTVTVSSGEGTSTGSGGSGGSGGADDIVLTQSPATLSLSPGERATLSCRASQSVSYMNWYQQKPGKAPKRWIYDTSKVASGVPARFSGSGSGTDYSLTINSLEAEDAATYYCQQWSSNPLTFGGGTKVEIKSGGGGSELVMTQTPLSLPVSLGDQASISCRSSQSLVHSNGNTYLHWYLQKPGQSPKLLIYKVSNRFSGVPDRFSGSGSGTDFTLKISRVEAEDLGVYFCSQSTHVPYTFGGGTKLEIKGGGGSGGGGSGGGGSEVQLLEQSGAELARPGASVKLSCKASGYTFTNYGLSWVKQRPGQVLEWIGEVYPRIGNAYYNEKFKGKATLTADKSSSTASMELRSLTSEDSAVYFCARRGSYDTNYDWYFDVWGQGTTVTVSS
notes: Bispecific single chain, VH(CD3)-VL(CD3)-VL(EpCAM)-VH(EpCAM); detected by anti-His; also called anti-CD3 (VH5/VL2)x4-7 (VL-VH)
For the molecule B3, the binding result (in the assay with human CD3 [5]; in assay [6]) was “binds” throughout.

B4: deimmunized anti-CD3 (VH5/VL2)×5-10 (VL-VH) (SEQ ID NO.:39) (bispecific antibody)
chain: DVQLVQSGAEVKKPGASVKVSCKASGYTFTRYTMHWVRQAPGQGLEWIGYINPSRGYTNYADSVKGRFTITTDKSTSTAYMELSSLRSEDTATYYCARYYDDHYCLDYWGQGTTVTVSSGEGTSTGSGGSGGSGGADDIVLTQSPATLSLSPGERATLSCRASQSVSYMNWYQQKPGKAPKRWIYDTSKVASGVPARFSGSGSGTDYSLTINSLEAEDAATYYCQQWSSNPLTFGGGTKVEIKSGGGGSELVMTQSPSSLTVTAGEKVTMSCKSSQSLLNSGNQKNYLTWYQQKPGQPPKLLIYWASTRESGVPDRFTGSGSGTDFTLTISSVQAEDLAVYYCQNDYSYPLTFGAGTKLEIKGGGGSGGGGSGGGGSEVQLLEQSGAELVRPGTSVKISCKASGYAFTNYWLGWVKQRPGHGLEWIGDIFPGSGNIHYNEKFKGKATLTADKSSSTAYMQLSSLTFEDSAVYFCARLRNWDEPMDYWGQGTTVTVSS
notes: Bispecific single chain, VH(CD3)-VL(CD3)-VL(EpCAM)-VH(EpCAM); detected by anti-His; also called anti-CD3 (VH5/VL2)x5-10 (VL-VH)
With B4, the binding result (with human CD3 [5]; in assay [6]) was “binds” in each case.

B5: anti-CD19×anti-CD3 (VH7/VL2) (SEQ ID NO.:198) (bispecific antibody)
chain: DIQLTQSPASLAVSLGQRATISCKASQSVDYDGDSYLNWYQQIPGQPPKLLIYDASNLVSGIPPRFSGSGSGTDFTLNIHPVEKVDAATYHCQQSTEDPWTFGGGTKLEIKGGGGSGGGGSGGGGSQVQLQQSGAELVRPGSSVKISCKASGYAFSSYWMNWVKQRPGQGLEWIGQIWPGDGDTNYNGKFKGKATLTADESSSTAYMQLSSLASEDSAVYFCARRETTTVGRYYYAMDYWGQGTTVTVSSGGGGSDVQLVQSGAEVKKPGASVKVSCKASGYTFTRYTMHWVRQAPGQGLEWIGYINPSRGYTNYNQKFKDRVTITTDKSTSTAYMELSSLRSEDTAVYYCARYYDDHYCLDYWGQGTTVTVSSGEGTSTGSGGSGGSGGADDIVLTQSPATLSLSPGERATLSCRASQSVSYMNWYQQKPGKAPKRWIYDTSKVASGVPARFSGSGSGTDYSLTINSLEAEDAATYYCQQWSSNPLTFGGGTKVEIK
notes: As m4: bispecific single chain, His-tagged; all other places say VH7/VL2
Consider B5, for which the MFI in the assay with CD19 [1] is approximately 200 MFI; with human CD3 [2], 25 MFI; with CD19 [3] it was not below 80 MFI; with human CD3 [4], not below 90 MFI. Also, the “fold over the negative control” value with human CD3 [4] is approximately 25 fold.

B6: anti-CD19×anti-CD3 (VH7/VL3) (SEQ ID NO.:200) (bispecific antibody)
chain: DIQLTQSPASLAVSLGQRATISCKASQSVDYDGDSYLNWYQQIPGQPPKLLIYDASNLVSGIPPRFSGSGSGTDFTLNIHPVEKVDAATYHCQQSTEDPWTFGGGTKLEIKGGGGSGGGGSGGGGSQVQLQQSGAELVRPGSSVKISCKASGYAFSSYWMNWVKQRPGQGLEWIGQIWPGDGDTNYNGKFKGKATLTADESSSTAYMQLSSLASEDSAVYFCARRETTTVGRYYYAMDYWGQGTTVTVSSGGGGSDVQLVQSGAEVKKPGASVKVSCKASGYTFTRYTMHWVRQAPGQGLEWIGYINPSRGYTNYNQKFKDRVTITTDKSTSTAYMELSSLRSEDTAVYYCARYYDDHYCLDYWGQGTTVTVSSGEGTSTGSGGSGGSGGADDIVLTQSPATLSLSPGERATLTCRASSSVSYMNWYQQKPGKAPKRWIYDTSKVASGVPARFSGSGSGTDYSLTINSLEAEDAATYYCQQWSSNPLTFGGGTKVEIK
notes: As m4: bispecific single chain, His-tagged; also called pEF anti-CD19×anti-CD3 (VH7/VL3); anti-CD3 (VH7/VK3)
B6: the MFI with CD19 [1] was approximately 200 MFI; with human CD3 [2], not below 40 MFI; with CD19 [3], not below 80 MFI; with human CD3 [4], not below 90 MFI. In addition, the “fold over the negative control” value in the assay with human CD3 [4] was approximately 25 fold.

The values above are taken from patent US20090022738A1 (MICROMET, published 2009).
